From PMC12187869, “Transport of the uremic toxin symmetric dimethylarginine (SDMA) by renal transport proteins” (Amino Acids, 2025)

Substrate: CN=C(NC)NCCC[C@H](N)C(=O)O
Assay: [3H]SDMA uptake kinetics (Km) and efflux in HEK-OATP4C1 cells
Type: cell-based, Homo sapiens

B1: OATP4C1 (Homo sapiens) (protein)
chain: MKSAKGIENLAFVPSSPDILRRLSASPSQIEVSALSSDPQRENSQPQELQKPQEPQKSPEPSLPSAPPNVSEEKLRSLSLSEFEEGSYGWRNFHPQCLQRCNTPGGFLLHYCLLAVTQGIVVNGLVNISISTVEKRYEMKSSLTGLISSSYDISFCLLSLFVSFFGERGHKPRWLAFAAFMIGLGALVFSLPQFFSGEYKLGSLFEDTCVTTRNSTSCTSSTSSLSNYLYVFILGQLLLGAGGTPLYTLGTAFLDDSVPTHKSSLYIGTGYAMSILGPAIGYVLGGQLLTIYIDVAMGESTDVTEDDPRWLGAWWIGFLLSWIFAWSLIIPFSCFPKHLPGTAEIQAGKTSQAHQSNSNADVKFGKSIKDFPAALKNLMKNAVFMCLVLSTSSEALITTGFATFLPKFIENQFGLTSSFAATLGGAVLIPGAALGQILGGFLVSKFRMTCKNTMKFALFTSGVALTLSFVFMYAKCENEPFAGVSESYNGTGELGNLIAPCNANCNCSRSYYYPVCGDGVQYFSPCFAGCSNPVAHRKPKVYYNCSCIERKTEITSTAETFGFEAKAGKCETHCAKLPIFLCIFFIVIIFTFMAGTPITVSILRCVNHRQRSLALGIQFMVLRLLGTIPGPIIFGFTIDSTCILWDINDCGIKGACWIYDNIKMAHMLVAISVTCKVITMFFNGFAIFLYKPPPSATDVSFHKENAVVTNVLAEQDLNKIVKEG
notes: HEK293 cells stably expressing human OATP4C1
Km: 70 µM
